For the data set, the target named is T1, LvaB (untagged).
T1 chain: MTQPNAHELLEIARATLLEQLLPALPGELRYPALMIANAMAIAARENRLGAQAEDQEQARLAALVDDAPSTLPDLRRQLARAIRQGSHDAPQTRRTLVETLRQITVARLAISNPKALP

B1: MBP-LvaA (LvaA N-terminally tagged with maltose binding protein) (protein)
chain: MSSSPTISPASDTFAAMTDDHRLAEFIREQASATRVVIQARKRLSGGAIQENWLLDLLIEGGPWAGVRRWVLRSDALSALPASLDREQEFAVLQVVYQAGVKVPRPLWLCRDVRVHGRVFFLMEYVPGSAAGRALSTGAGPQGRAQLATQLGANLARLHQVRPPCATLCFLSVPDSSPALATIDAYRRYLDTLADAYPVLEWGLRWCELHAPRSSTLCLLHRDYRTGNYLASEEGLEAVLDWEFTGWGDPCEDLGWFTARCWRFTRPDLEAGGIGQLEDFLRGYHEVSSLCIERSRLHYWQVMATLRWAVIALQQGQRHLSGEEPSLELALTARLLPELELDILHMTGAEAP
Turning to B1, the “abundance of CoA species by LC/MS in in vitro enzyme reactions (4HV-CoA to 4PV-CoA)” value is “A decrease of 4HV-CoA and an increase of the predicted 4PV-CoA intermediate was seen only when all four of the enzymes were present”.

The record behind these values is patent US20210155961.
